Source: patent US20040071656A1, “Modulation of heat-shock-protein-based immunotherapies” (priority 2001, published 2004)

Molecular target: T1, exoplasmic domain of human CD40 (GST-CD40) (Homo sapiens, UniProt P25942)
T1 construct: The cDNA for the exoplasmic domain of CD40 (amino acids 20-212); made in house; host or cells: E. coli, pGEX-2T
Test: GST-CD40 binding and competition assay with recombinant Hsp70 and its domains
Conditions: ADP, 5-fold molar excess of competitor
Method: For binding assays with recombinant Hsp70 and its domains, 3 μM His6-Hsp70 or its His6-tagged domains were incubated with 2 mM ATP, 2 mM ADP or 2 mM ADP and 28 μM peptide C in 50 μl binding buffer (10 mM MOPS/KOH, pH 7.2, 150 mM KCl and 3 mM MgCl2) for 30 min at 37° C. In competition experiments binding was probed with either a 10-fold excess of Hsp70, the two domains, or DnaK, or with a 5-fold excess of Hip or Bag 1 for 10 min at 0° C. To this end, Hsp70, N70, C70 and DnaK were preincubated with ADP, ATP and peptide C as described above. […] 10 μl of the eluates were subjected to SDS-PAGE and analyzed by immunoblotting using a Penta-His-antibody (Quiagen). Blot signals were quantified by Quantity One (Biorad).
Details for FIG. 3. […] Thereafter samples were affinity purified on glutathione-Sepharose as outlined in Experimental Procedures, subjected to SDS-PAGE and analyzed by immunoblotting with antibodies directed against Hsc70 and Hsp70 (upper lanes), and against Hsp90 (lower lanes). […] After affinity purification samples were analyzed by immunoblotting as described in A, using antibodies directed against the His6-tag. […] Protein bound to Hsp70 was analyzed by affinity purification on Ni-NTA-agarose and immunoblotting with antibodies directed against CD40. […]
Details for FIG. 5. […] The lower panel is a quantitation of the data. […]

T1 sequence (P25942 20-212): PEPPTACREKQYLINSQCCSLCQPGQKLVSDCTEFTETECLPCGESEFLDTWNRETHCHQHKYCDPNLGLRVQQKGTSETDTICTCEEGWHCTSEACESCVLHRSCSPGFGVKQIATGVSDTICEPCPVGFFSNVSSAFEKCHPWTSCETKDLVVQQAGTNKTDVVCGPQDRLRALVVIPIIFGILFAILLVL

B1: Hip: Hsp70 cochaperone that stabilizes the ADP-state of Hsp70, recombinant His-tagged (protein, UniProt P50502 1-369, looked up)
Hsc70-interacting protein: MDPRKVNELRAFVKMCKQDPSVLHTEEMRFLREWVESMGGKVPPATQKAKSEENTKEEKPDSKKVEEDLKADEPSSEESDLEIDKEGVIEPDTDAPQEMGDENAEITEEMMDQANDKKVAAIEALNDGELQKAIDLFTDAIKLNPRLAILYAKRASVFVKLQKPNAAIRDCDRAIEINPDSAQPYKWRGKAHRLLGHWEEAAHDLALACKLDYDEDASAMLKEVQPRAQKIAEHRRKYERKREEREIKERIERVKKAREEHERAQREEEARRQSGAQYGSFPGGFPGGMPGNFPGGMPGMGGGMPGMAGMPGLNEILSDPEVLAAMQDPEVMVAFQDVAQNPANMSKYQSNPKVMNLISKLSAKFGGQA
modifications: His tag
notes: Hsp70 cochaperone that stabilizes the ADP-state of Hsp70, recombinant His-tagged
- competition for the binding of full-length Hsp70 to CD40: acted as an effective competitor of the interaction
